Results: US20250074996A1 (Innovent, published 2025)
Like-named read-outs stand apart in the source and are kept apart here.

What was measured:
[1] = molecular target: T1, CD3E on the surface of Jurkat-NFAT-Luc cells (UniProt P07766 23-207); assay: cell-based or functional assay
[2] = molecular target: T1, CD3E on the surface of Jurkat-NFAT-Luc …; assay: cell-based or functional assay; remark: listed apart in the source
Human CD3D&E-Bio = molecular target: T2, Human CD3D&E-Bio (human, UniProt P07766 23-126; P04234 22-105, biotin-labeled (site not stated)); assay: BLI (Octet Red96e), SA or AHC sensors, 1:1 fit
T2 construct: Bought heterodimer antigen; also called human CD3D&E heterodimer antigen (ACRO Biosystems); human CD3E
T2 sequence (P07766 23-126 limits assumed, chain 1 of 2): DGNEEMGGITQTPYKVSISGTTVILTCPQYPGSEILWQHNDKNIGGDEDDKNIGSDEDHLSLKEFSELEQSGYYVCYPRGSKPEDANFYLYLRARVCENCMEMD
T2 sequence (P04234 22-105 limits assumed, chain 2 of 2): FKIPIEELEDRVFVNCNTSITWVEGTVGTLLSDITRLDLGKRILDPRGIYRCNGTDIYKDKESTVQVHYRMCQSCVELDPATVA
Procedure: (§1) Sensors (Fortebio, Cat #18-5019) coupled to streptavidin protein (SA) or anti-human-Fc (AHC) were pre-wetted by immersion in 200 μL of SD buffer (1×PBS, 0.1% BSA, 0.05% tween-20). Exemplary antibodies and biotin-labeled or Fc-tagged BCMA and CD3D&E heterodimer antigens were diluted with SD buffer, respectively. 200 μL of SD buffer and diluted samples (100 nM) were taken and added to a 96-well black plate (Greiner, Cat #655209), respectively. The sensors and the samples were placed in Octet (Fortebio, Red96e). Data Acquisition 10.0 was executed and “New Kinetic Experiment” was selected. The sensors were arranged according to the positions of the samples, and the operation procedures and times were set as: Baseline 60 s, Loading 250 s, Baseline 100 s, Association 600 s and Dissociation 600 s. The experiment was conducted at a rotation speed of 1000 rpm and 30° C.
(§2) The results were analyzed in “Data Analysis 10.0” software, with the buffer reference channel being subtracted. 1:1 binding was selected to fit the data, and kₒₙ, koff, and KD values for the exemplary antibodies were calculated.
(§3) In experiments performed according to the above-mentioned assay, the affinities of the exemplary antibodies were detected using a human CD3D&E heterodimer antigen (ACRO Biosystems) and a monkey CD3D&E heterodimer antigen (ACRO Biosystems). The binding affinities of GPRC5D×CD3 bispecific antibodies hz5E12.1-P1/SP34.24 and hz5E12.1-P1/SP34.87 to human/monkey CD3D&E were also detected.

Cyno CD3D&E-Bio = molecular target: T3, Cyno CD3D&E-Bio (monkey (cyno), UniProt Q95LI5 22-117; Q95LI8 22-105, biotin-labeled (site not stated)); assay: BLI (Octet Red96e), SA or AHC sensors, 1:1 fit
T3 construct: Bought heterodimer antigen; also called monkey CD3D&E heterodimer antigen (ACRO Biosystems); monkey CD3E
T3 sequence (Q95LI5 22-117 limits assumed, chain 1 of 2): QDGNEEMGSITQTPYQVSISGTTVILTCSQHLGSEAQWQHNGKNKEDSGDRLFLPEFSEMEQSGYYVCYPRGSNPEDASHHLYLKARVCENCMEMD
T3 sequence (Q95LI8 22-105 limits assumed, chain 2 of 2): as the sequence (P04234 22-105 limits assumed, chain 2 of 2) above, with I5V, N15K, I20V, S32T, D33N, I34N, T64A, S74N, V83L counted along it
Procedure: as §1, §2, §3

[3] = molecular target: T1, CD3E on the surface of Jurkat-NFAT-Luc …; assay: cell-based or functional assay; remark: listed apart in the source
[4] = molecular target: T1, CD3E on the surface of Jurkat-NFAT-Luc …; assay: cell-based or functional assay; remark: listed apart in the source

T1 sequence (P07766 23-207): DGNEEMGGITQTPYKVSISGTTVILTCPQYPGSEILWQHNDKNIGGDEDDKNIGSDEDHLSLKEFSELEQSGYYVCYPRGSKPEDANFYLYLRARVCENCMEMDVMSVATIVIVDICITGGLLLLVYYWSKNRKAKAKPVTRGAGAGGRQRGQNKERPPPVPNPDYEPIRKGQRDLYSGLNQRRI

B1: TS-F2-3 (ch7F5D4/SP34.24/38456) (antibody, human IgG1, kappa, lambda, L234A L235A)
heavy 1: not shown
light 1: DIQMTQTTSSLSASLGDRVTISCRASQDIRNYLNWYQQRPDGTIKLLIYYTSRLHSGVPSRFSGSGSGTDYSLTISNLDQEDFATYFCQQGNMLPWTFGGGTSLEIKRTVAAPSVFIFPPSDEQLKSGTASVVCLLNNFYPREAKVQWKVDNALQSGNSQESVTEQDSKDSTYSLSSTLTLSKADYEKHKVYACEVTHQGLSSPVTKSFNRGEC
heavy 2: not shown
light 2: QAVVTQEPSLTVSPGGTVTLTCRSSTGAVTTSNYANWVQQKPGQAPRGLIGGTNKRAPGVPARFSGSLLGDKAALTLLGAQPEDEAEYYCALWYSNLWVFGQGTKLTVLGQPKAAPSVTLFPPSSEELQANKATLVCLISDFYPGAVTVAWKADSSPVKAGVETTTPSKQSNNKYAASSYLSLTPEQWKSHRSYSCQVTHEGSTVEKTVAPTECS
EC50 of Jurkat-NFAT-Luc luciferase activation; target cells huGPRC5D-GS-CHO [1]: 0.00145 nM | EC50 of Jurkat-NFAT-Luc luciferase activation; tumor cells H929 [1]: 0.00547 nM | EC50 of Jurkat-NFAT-Luc luciferase activation; tumor cells L363 [1]: 0.00286 nM | EC50 of Jurkat-NFAT-Luc luciferase activation; tumor cells U266 [1]: 0.047 nM

B2: TS-F6-2 (antibody, human IgG1, kappa, L234A L235A)
heavy: not shown
light: DIQMTQTTSSLSASLGDRVTISCRASQDIRNYLNWYQQRPDGTIKLLIYYTSRLHSGVPSRFSGSGSGTDYSLTISNLDQEDFATYFCQQGNMLPWTFGGGTSLEIKRTVAAPSVFIFPPSDEQLKSGTASVVCLLNNFYPREAKVQWKVDNALQSGNSQESVTEQDSKDSTYSLSSTLTLSKADYEKHKVYACEVTHQGLSSPVTKSFNRGECGGGGSGGGGSEVQLVESGGGLVQPGGSLKLSCAASGFTFNTYAMNWVRQASGKCLEWVGRIRSKYNNYATYYADSVKDRFTISRDDSKSTLYLQMNSLKTEDTAVYYCARHGNFGQSYVSWFAYWGQGTTVTVSSGGGGSGGGGSGGGGSGGGGSQAVVTQEPSLTVSPGGTVTLTCRSSTGAVTTSNYANWVQQKPGQAPRGLIGGTNKRAPGVPARFSGSLLGDKAALTLLGAQPEDEAEYYCALWYSNLWVFGCGTKLTVL
EC50 of Jurkat-NFAT-Luc luciferase activation; tumor cells H929 [1]: 2.2 nM | EC50 of Jurkat-NFAT-Luc luciferase activation; tumor cells L363 [1]: 0.0617 nM

B3: GPRC5D×CD3 bispecific antibody (ch7F5D4/hzsp34.24) (bispecific antibody, V domains shown)
VH 1: DVQLQESGPGLVKPSQSLSLTCTVTGYSITSDYAWNWIRQFPGNKLEWMVYIDYTGRTSYNPSLKSRISLTRDTSKNQFFLQFNSVTTEDTATYYCARGNYGRYYYVMDYWGQGTSVTVSS
VL 1: DIQMTQTTSSLSASLGDRVTISCRASQDIRNYLNWYQQRPDGTIKLLIYYTSRLHSGVPSRFSGSGSGTDYSLTISNLDQEDFATYFCQQGNMLPWTFGGGTSLEIK
VH 2: EVQLVESGGGLVQPGGSLKLSCAASGFTFNTYAMNWVRQASGKGLEWVGRIRSKYNNYATYYADSVKDRFTISRDDSKSTLYLQMNSLKTEDTAVYYCARHGNFGQSYVSWFAYWGQGTTVTVSS
VL 2: QAVVTQEPSLTVSPGGTVTLTCRSSTGAVTTSNYANWVQQKPGQAPRGLIGGTNKRAPGVPARFSGSLLGDKAALTLLGAQPEDEAEYYCALWYSNLWVFGQGTKLTVL
EC50 of Jurkat-NFAT-Luc luciferase activation; target cells huGPRC5D-GS-CHO [1]: 0.00566 nM | EC50 of Jurkat-NFAT-Luc luciferase activation; tumor cells H929 [1]: 0.00772 nM | EC50 of Jurkat-NFAT-Luc luciferase activation; tumor cells L363 [1]: 0.00562 nM | EC50 of Jurkat-NFAT-Luc luciferase activation; tumor cells U266 [1]: 0.0361 nM

B4: BCMA×CD3 bispecific antibody (38456/hzsp34.24) (bispecific antibody, V domains shown)
VH 1: EVQLVESGGGLVQPGRSLRLSCAASGFTFGDYAIHWVRQAPGKGLEWVSGISWDSSSIAYADSVKGRFTISRDNAKNSLYLQMNSLRAEDTAVYYCAKDSPVRDSFGSIAFDIWGQGTMVTVSS
VL 1: EIVLTQSPATLSLSPGERATLSCRASQSVSSYLAWYQQKPGQAPRLLIYDASKRATGIPARFSGSGSGTDFTLTISSLEPEDFAVYYCQQASALPLTFGGGTKVEIK
VH 2: EVQLVESGGGLVQPGGSLKLSCAASGFTFNTYAMNWVRQASGKGLEWVGRIRSKYNNYATYYADSVKDRFTISRDDSKSTLYLQMNSLKTEDTAVYYCARHGNFGQSYVSWFAYWGQGTTVTVSS
VL 2: QAVVTQEPSLTVSPGGTVTLTCRSSTGAVTTSNYANWVQQKPGQAPRGLIGGTNKRAPGVPARFSGSLLGDKAALTLLGAQPEDEAEYYCALWYSNLWVFGQGTKLTVL
EC50 of Jurkat-NFAT-Luc luciferase activation; tumor cells 8226 [2]: 0.00482 nM | EC50 of Jurkat-NFAT-Luc luciferase activation; tumor cells H929 [2]: 0.0596 nM | EC50 of Jurkat-NFAT-Luc luciferase activation; tumor cells L363 [2]: 0.0366 nM | EC50 of Jurkat-NFAT-Luc luciferase activation; tumor cells U266 [2]: 0.011 nM

B5: GPRC5D×CD3 bispecific antibody hz5E12.1-P1/SP34.24 (bispecific antibody, V domains shown)
VH 1: QVQLVQSGAEVKKPGASVKVSCKASGYTFIGYVMHWVRQAPGQGLEWMGYINPYNDVSQHQGKFKGRVTMTSDTSTSTVYMELSSLRSEDTAVYYCAREGRLGLRVLAYWGQGTLVTVSS
VL 1: DIVMTQSPDSLAVSLGERATINCRASESVDSYGITFMNWYQQKPGQPPKLLIYAASNQGSGVPDRFSGSGSGTDFTLTISSLQAEDVAVYYCQQSKEVPWTFGQGTKLEIK
VH 2: EVQLVESGGGLVQPGGSLKLSCAASGFTFNTYAMNWVRQASGKGLEWVGRIRSKYNNYATYYADSVKDRFTISRDDSKSTLYLQMNSLKTEDTAVYYCARHGNFGQSYVSWFAYWGQGTTVTVSS
VL 2: QAVVTQEPSLTVSPGGTVTLTCRSSTGAVTTSNYANWVQQKPGQAPRGLIGGTNKRAPGVPARFSGSLLGDKAALTLLGAQPEDEAEYYCALWYSNLWVFGQGTKLTVL
Kd (Human CD3D&E-Bio): 21.4 nM | koff (Human CD3D&E-Bio): 0.00335 s⁻¹ | kon (Human CD3D&E-Bio): 156000 M⁻¹ s⁻¹ | Kd (Cyno CD3D&E-Bio): 26 nM | koff (Cyno CD3D&E-Bio): 0.00319 s⁻¹ | kon (Cyno CD3D&E-Bio): 123000 M⁻¹ s⁻¹ | EC50 of Jurkat-NFAT-Luc luciferase activation; tumor cells ARD [3]: 0.00273 nM | EC50 of Jurkat-NFAT-Luc luciferase activation; tumor cells MM.1S [3]: 0.00225 nM | EC50 of Jurkat-NFAT-Luc luciferase activation; tumor cells 8226 [4]: 0.00318 nM | EC50 of Jurkat-NFAT-Luc luciferase activation; tumor cells H929 [4]: 0.00656 nM | EC50 of Jurkat-NFAT-Luc luciferase activation; tumor cells L363 [4]: 0.00559 nM | EC50 of Jurkat-NFAT-Luc luciferase activation; tumor cells U266 [4]: 0.0057 nM | EC50 of Jurkat-NFAT-Luc luciferase activation; tumor cells 8226 [2]: 0.00318 nM | EC50 of Jurkat-NFAT-Luc luciferase activation; tumor cells H929 [2]: 0.00656 nM | EC50 of Jurkat-NFAT-Luc luciferase activation; tumor cells L363 [2]: 0.00559 nM | EC50 of Jurkat-NFAT-Luc luciferase activation; tumor cells U266 [2]: 0.0057 nM

B6: GPRC5D×CD3 bispecific antibody hz5E12.1-P1/SP34.87 (bispecific antibody, V domains shown)
VH 1: QVQLVQSGAEVKKPGASVKVSCKASGYTFIGYVMHWVRQAPGQGLEWMGYINPYNDVSQHQGKFKGRVTMTSDTSTSTVYMELSSLRSEDTAVYYCAREGRLGLRVLAYWGQGTLVTVSS
VL 1: DIVMTQSPDSLAVSLGERATINCRASESVDSYGITFMNWYQQKPGQPPKLLIYAASNQGSGVPDRFSGSGSGTDFTLTISSLQAEDVAVYYCQQSKEVPWTFGQGTKLEIK
VH 2: EVQLVESGGGLVQPGGSLKLSCAASGFTFNTYAMNWVRQASGKGLEWVGRIRSKYNNYATYYADSVKDRFTISRDDSKSTLYLQMNSLKTEDTAVYYCARHYNFGQSYVSWFAYWGQGTTVTVSS
VL 2: QAVVTQEPSLTVSPGGTVTLTCRSSTGAVTTSNYANWVQQKPGQAPRGLIGGTNKRAPGVPARFSGSLLGDKAALTLLGAQPEDEAEYYCALWYSNLWVFGQGTKLTVL
Kd (Human CD3D&E-Bio): 285 nM | koff (Human CD3D&E-Bio): 0.0176 s⁻¹ | kon (Human CD3D&E-Bio): 61900 M⁻¹ s⁻¹ | Kd (Cyno CD3D&E-Bio): 290 nM | koff (Cyno CD3D&E-Bio): 0.0169 s⁻¹ | kon (Cyno CD3D&E-Bio): 58300 M⁻¹ s⁻¹ | EC50 of Jurkat-NFAT-Luc luciferase activation; tumor cells ARD [3]: 0.0149 nM | EC50 of Jurkat-NFAT-Luc luciferase activation; tumor cells MM.1S [3]: 0.0183 nM | EC50 of Jurkat-NFAT-Luc luciferase activation; tumor cells 8226 [2]: 0.0201 nM | EC50 of Jurkat-NFAT-Luc luciferase activation; tumor cells H929 [2]: 0.0453 nM | EC50 of Jurkat-NFAT-Luc luciferase activation; tumor cells L363 [2]: 0.0389 nM | EC50 of Jurkat-NFAT-Luc luciferase activation; tumor cells U266 [2]: 0.145 nM

B7: TS-F6-1 (antibody, human IgG1, kappa, L234A L235A)
heavy: not shown
light: DIQMTQTTSSLSASLGDRVTISCRASQDIRNYLNWYQQRPDGTIKLLIYYTSRLHSGVPSRFSGSGSGTDYSLTISNLDQEDFATYFCQQGNMLPWTFGGGTSLEIKRTVAAPSVFIFPPSDEQLKSGTASVVCLLNNFYPREAKVQWKVDNALQSGNSQESVTEQDSKDSTYSLSSTLTLSKADYEKHKVYACEVTHQGLSSPVTKSFNRGECGGGGSGGGGSQAVVTQEPSLTVSPGGTVTLTCRSSTGAVTTSNYANWVQQKPGQAPRGLIGGTNKRAPGVPARFSGSLLGDKAALTLLGAQPEDEAEYYCALWYSNLWVFGCGTKLTVLGGGGSGGGGSGGGGSGGGGSEVQLVESGGGLVQPGGSLKLSCAASGFTFNTYAMNWVRQASGKCLEWVGRIRSKYNNYATYYADSVKDRFTISRDDSKSTLYLQMNSLKTEDTAVYYCARHGNFGQSYVSWFAYWGQGTTVTVSS
EC50 of Jurkat-NFAT-Luc luciferase activation; target cells huGPRC5D-GS-CHO [1]: 0.00966 nM | EC50 of Jurkat-NFAT-Luc luciferase activation; tumor cells H929 [1]: 3.79 nM | EC50 of Jurkat-NFAT-Luc luciferase activation; tumor cells L363 [1]: 0.0771 nM | EC50 of Jurkat-NFAT-Luc luciferase activation; tumor cells U266 [1]: 0.366 nM
